Assay: protease stability score; higher = more stable; yeast display proteolysis, trypsin and chymotrypsin;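 note: relative to predicted unfolded state with 0 unfolded-like and 1 meaning tenfold more protease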

| Sequence | protease stability score |
| --- | --- |
| DEEKKLAHKIARILMDLFLTGNEEVWKELMDPHVKFEIGDFIDHGWEAVKRYYEVLGFDHIQETDLESIVIFENHVILHIRIHGEVNGRQVDTTVTLFIEKINGKWYIRTIRIH | 2.5 |
| DEEERLLEELARLFLHLWRTGDEDTMLHLADPNTRSRINGVEQHGMELTNKFLEELLRHIRIKHLKITHSYAFDGRVFMHTLMHRTVDGKEETVWVEIILVVFNGKLKEYEVRFK | 1.3 |
| SHEDRWIEHMVDLLEELFHTGDWEHLRHLFDPNTRSNINGKEFHGRDLAIKLVVEKMEFFKGARTDVEHRHVQGEKVELIFRLEYNGRRFHLSIRLQVVNGRVKEVNVKIDTE | 1.67 |
| DEERELAKWAEEMLRRRFETGNERFWEELADPNTRSDINGVELIGRETVVHFLREEQRHMGVDHTDVKHTNVELQGDKVIVRMDVELHFDGVTVRSTLSYTSIKFNGRWILHSIEHHIH | 1.13 |
| DLDNILMKLFLKEVEEVERTGDERLIHELADPNVRVEQGDKKFHGRHEAVRIYMELGIKHSRLTDVKFFEGHVLIHVRIHVDGRDIDLTIFMHKIDGRWIIKSMKQD | 1.16 |
| DEDSELAQIYNDLWRHTMETGDEHLSRRLLDPEVRLIINGREFIGWSLAIEVEHRLFKRFDHVHIDLEHITIQGDKIHTNSTLHIHFNGVTFEHRIHISIKKVNGRWINHTQRIQ | 0.801 |
| DDKEETARRILDWITKLLLTGDFDTLHRMADPHMRSNYGEFEMHGMEEHSEWWHRLTLRVDHLREEIKRVTVVNGKIVADLRLRFIIGDKVEVRDITVELIVVDGRLKELRFDVK | 1.14 |
| DESEEDVEYFVKILDRAWATGDEDTLRRLLDPHYRVHVDGKDIIGREEVVRLFKEMGWELRFHRDHIHVQGDKMFIHGTLRLIYNGRIEEREIHLDVNKINGRWLNERVEIR | 1.81 |
| DEEEEHSKKMTDWWLHAVLTGDEEKLRQMIDPDVKLHINGKDHVGREEAVKSLRELLHRLGVNHIHVERMDVVGDKVILNFHLRVGDKEHETRVILHIYNGRIKEIRIHIH | 2.16 |
| DEDEELARRHLKRLMEIWNTGDEDSHRHLADPHMRYIYNGKQTHGRQVSAKILLEMRIDHLEIKRMHLVDGKLEIDGRMEGEVNGRKDTVEVIIHNEKVNGRWIIRELQFG | 0.503 |
| DEDKDVTKRLFELLRQADETGDEHTMTRLLDPHAQLVVNGRRVHGMEFVWELLLRLRHRYDHSHWRLHDARTQGEYMHLDVRLHLNIDGKRVNIEMHLIILKIDGVWFVHSVEIH | 0.45 |
| DEHEELIMEFLRRLLEWHLTGDEEYISRNFDPNTQFDILIGDKRYHIHGREEIHEWLHEFLRELRVHIIVHEMRAQGDKAHNRGTLNLTYGDKRRTVDVHIFIVVVNGRYKKIIVQVK | 1.62 |
| DEHEQEANEMMHRSLETLETGDERLLRHMADPNTKVQVGDKTWHGWHLLHEYRKEFRHARIIIREIDIQGEFVFLHGELDVNGKRLERTIIQLKVDGRWILHHMHLR | 0.435 |
| DHVEEEAEEFVRNFIHNMRTGNWKYMEELLDPNVRLRYGDKDHHGREEMVKWIEEAFKKFKNLTIEIKHINIIGDKLIFDLHVEFNGKHHQLHLIVTKIDGKWISKSIHVD | 1.47 |
| DHEENMLKLMVTLWTQSLRTGDEDTLFRLMDPHARDVVGDKEFHGREEVKHHLRELLLEIRIEDSHVEDFRVYDGVAEIDTRQHGIFNGKRLEYETRILVLKVNGRWIFTHVERR | 0.592 |
| DDETHEYEEAMELWVKALTTGNEDLLKDLHDPHTLTRINGRTEHGRHTWVEIRRKLGVKHLHIETSRLIDGRVHLHARIHVGDKNLEIIVIIVKVNGRWLTSEINIH | 0.951 |
| SHEEEMAERALRKFIHSVQTGDEDSWEELLDPNVRINIGDKRHVGRHEAVKLFRQRIRHLRIDHIELRERDYYGDKLILRIIVEGRFNGQETTLELHIVFWKFDGRWIIESMEHK | 2.77 |
| DEDREQAEEVIRSITEAMQTGDEHLWERMIDPNVRVIIDGRTYHGRLAWDLFRERYDVVHSSDSRIRHLRTYNGRVEVITQLRLDVEINGQRFETSMETHLIVLKFNGKWTVRRMEIH | 1.67 |
| DELDKRTREFTRLFLEWEETGDFHTMLNFLDPNARVDVNGVHLIGREKMVEHFLTEHERIDHREWHLRRIHYYDGRSDIDGHITLFVDGQEIHIRVHVIFFVVDGRMHMVEKRII | 0.751 |
| TEEDEVTEELARNWVKYFLTGDEEQLHRLMDPNARFHTIVGDKHVHRHGRESIVHWIDHVLRHIRIEEVHIRRVHIWNGRVDINNEEIGRVGDKHYRTEVRIHLRIVDGVIRSVDIDIE | 0.693 |
| TEEEKMAEKLWEILVKNAQTGDEDKVLKLIDPHTRFTFNGQTHHGRDTFHHLWKILGVDHVEPHSIEVQGDKAHIDSRLYFNGQVRTYTIIVEKINGRWIVTTIDLH | 1 |
| SEDEKENREWKRLLIEAHMTGDEHFLSRQLDPNVLVIVNGQEKVGREEAERELKEWLDKVKGLRIRRFDTESEEFVDGRLHSNLKLDGIINGRRTELDIHVISVKIDGQWQIRQIFFV | 1.44 |
| DEEDEDARVALEEVMRSQITGDEEKSEKLIDPHVRLEIGDKIYHGRELVVRVEHELGVKHIEPKKVEMQGDWIDLHGVIVYGDKKIHQTLHLLKFNGKWLIKEIRIK | 1.6 |
| REEDKRAREDVEEWLRWFLTGDEEHLIKYADPNVRVDYGDKDIHGRNEATRIWREFLKHIRIHHVEVSHIKYVGEKVIVDVRLDGEINGRRVITHVEMEIIVVNGVLKSVHINSR | 1.21 |
| TDEEKSVEELLEKIEHANDTGDFELHKRLADPHVRVLVNGVELHGRHVLMEWLRELFERFKNVTFRLNLREVEFQGEWVFLRIELTVHVNGRTHHHDSIYIIHKVDGRWHITEVRFH | 1.34 |

| Sequence | protease stability score |
| --- | --- |
| SELEELSKHHLELLTHSHRTGDEKSFVELLDPHARIHQGDFHFHGRKLIDEFFRQARIHHIHVDDSELQGNWVFVHGRVEGNFNGVRSKITTHIIELKVNGRWLLHNVHIA | 0.779 |
| TDEEELLHRILDEIEKALLTGDEDIIHRLFDPHVRFHVNGRHIVGRHEWSRWVNDHRKRFKNIQIRMRVEEKDVIDGRMHSRTKLHIIFNGVRYEITQEINIDVIDGRLKNVIVHDE | 0.725 |
| SEEEHHDRLMTDFFIEIMRTGDEKEFIDLFDPHDRTHIDGVDAHGREIAVELLHLFLRKLGFDHIRVTDVHVYNGKVELHMRSDQGDKHVEVQIHSVVYNGKLQHLHVKIRTL | 1.63 |
| DEDEDTAHETWKILVHSLITGDERTMELLMDPNVQVHVGDKRHIGRERASRFHSEIRTEHVEMRTSEMQGNKVILHGRVVMRVNGKTLDHDFHLILDKIDGKWYITEIRFK | 0.517 |
| SEMEHQSRKILEDTLRQWLTGDWHSLHELMDPNTKLDVGDKHFHGREAVKVFLERADHVKDLQIDHMRIQGDKIETDVHMHVTVGDKEKDVEVELIVLKVNGKWLLRSASIK | 1.22 |
| SEEKERNHEIAEILIKLWLTGDEDHFWQLADPNPRVDFDGQEIIGRESIMRLLEHLIRRLGINHKHVDHTERQGDKVHIEVRLDQGEYHRTLHLEFIYVNGRVKEVRIRSRER | 1.4 |
| DEDTHLAKVVLEIFLHLMRTGDFKETWEYADPHVRIDIGDKHLHGREELARLMEELGIDHFEIRDVHLQGDKLHIRTDVDFNGVRTHVVFIILKVDGRWVLTHVRIE | 1.46 |
| SETEEEAERFEKILLHYRKTGNEDDLLNFIDPHVRIHQGDKEIHGRELYLELMRRWKEIAGHDFFFMNIHDVEIQGEKAIIDGRLFVNGVHHKIKVIFKKINGRWIVESEHIH | 0.889 |
| SEHEEHIKRHIEHVIHHWMTGNWEELLRLMDPNVRLILHIGDKEIHSIGMEEILRRLHEYKKKIKNATIHIDHIDMQGDKTTIHETIHIGDYVYDTRIILVIVNGRIKRIEYQVH | 0.128 |
| DELEKIVEDFLRVLLEHLHTGNWEYLKEYFDPDVRIKIGDKELHGREDFVRRLREWLSRIKNATFEIEVDDNKVQGDKAILHTKVIIRVGDKLIELKTHIIVNKINGVWMVRSQSVE | 1.46 |
| TERDMFIETYIQIFIEHVRTGDEEALARLADPNVRIRVGDKHLHGWHELRRFFHEWRVKDLDFRDYRYYDGRVEIRGFERVEFNGQERDMEVIFHFVKINGRWYLEETEIR | 2.32 |
| DEDTELAERWVELFRKSVETGDEHKLEKLLDPHVKLDIGDKRYHGRELAVDTLKTMIDEMRSDHVTIDRVDVFDGRVILHSRIESTVDGRRTELEMRIVARKIDGRWVVESLEIN | 1.49 |
| SEEEESIHEAQKVFLKIIMTGDWEEIARRLDPDVRLHIGNKKVHGREEAIEFFRKFLEEIRIHDEELKEFSSIDGRVHIRGEIDGTINGVRDRVEVHNVIWKFNGRWFISFREER | 1.36 |
| SEEKDQLKHVLEDLLRSIITGDEERIVELLDPEVRVDVGEKHSHGRENAAHLVQKLSEELRWRDIHVRDVRLIGDKIDIETRLEGDINGRNLIFQTHRHVIKVNGRWYFRRIIIH | 1.38 |
| DEDEKDTHIWIKILEHIWDTGDEESFERLADPNVRFIQGEKELHGRERLIRFLSKYKNLTFRSEDYHIVNGRALVRITNHVNGRDLEMIIYYEKVNGQWHNKEIELR | 1.27 |
| EEEKETERIASEHHLEHLRTGDEETYLRNFDPHVRLDIDGREFHGWEFFRHFLRRMGFKHVRHIQIHHSELFNGRLFFDGTIRFRVGDKEDTFKVEVVDVKFNGRWHIQEFRVK | 1.43 |
| DDEEEEEEKFRKILEEALETGDERILHHFADPHVQTHFNGQTFHGREEWIKILRKLGVERVHLNIKRVEVYGDKIHIDGELHFDGRTHKVELVALKVDGRWLLHKIVIR | 1.68 |
| DDLHRNMKKVADLFIQVWLTGDFEELMHLFDPNVRLKVNGVEMHGRDDFAKFVKEHRERIDHMHFRLDELRIYGDKIVIHGTLHLHQGEKDWHHEVHIHLLVIDGVIRTVEEEER | 2.08 |
| SEEEEWIRRALEILIEIIRTGDEDSSKRYVDPHVRLHIGDKEFHGREDFTRMVHELFNRVDHIEIRIHDMRIINGQAHVDTELILRQGDKEIVLRTEIVLLKFDGKWIMESVHIR | 1.29 |
| SEDEEAAKRLTDLLIHNWETGNEDELHRLIDPNMREDVNGKEFHGWSYMVHFLRRIDHVFSHITIHDIKSVGDYVYIDGTVDEIFHIGDSKIRINIRVTIIILKINGRWIMTHVHVK | 1.32 |
| DEDEHHSELASRLMHETTRTGDETSFLNLADPDTRLDINGREFIGREEWVKFFHKWSKHLGAKVIDTRFNDLRVIDGRIKLDMEYIVHVGDKTMHHKMIVFALKVNGRWHLESLKFE | 0.436 |
| DEDKERADEMLEYILHYILTGDEDSLRELFDPHARLHVDGRDIIGWDKFNRKLIEIRQRTRIQSEHIHIQGDKLHVDGTLRINIHYNGQHLHIDLRSIHITVKINGRWVFKFMEIR | 0.829 |
| SEDEEYAKNVDKIMRESLMTGDEDSVERMFDPHAKVIVGDKEYHGREEMVRHIKWFLEHARIRDLRMRDVRIYGDKIEIDVEVDIDVNGKRIQRKEVIYVVKVNGKWIVEYIEIK | 1.54 |
| DEHEEEVLRIARDFLEALRTGDEEHMTELMDPHVRLEVDGRDLHGREEVLRLLVEQWERIKNVTWEVERLEIVNGRLIIQLRVHVNGQNHDVRLYINVVDGVVKSIRHEKH | 1.47 |
| SEMEHNLLEFIEHLLRNWRTGDEDREHELADPHYRIDVNGVELHGMEYLLEMFRRLGIDHMEFELKRSTVVGDFAIVDGNLQFHVDGKWERRKVKMVNKKVDGRWHHTQFSVN | 1.5 |

— the NTF2 design screens of Basanta et al. (2020)
